Laboratory results from publication PMC11475653.

Details: ubiquitination at K45

In the case of AMBRA1: K45R, the degradation_or_half_life is reported as “decreases”.
